Patent US20250339531A1, “DUX4 POLYPEPTIDES AND NUCLEIC ACIDS FOR TREATING INFLAMMATORY AND AUTOIMMUNE CONDITIONS” (Fred Hutchinson Cancer Center, priority 2021, published 2025)

Tested on: proteins that co-immunoprecipitated with DUX4-CTD constructs expressed in MB135 myoblasts
Test: LC-MS of proteins co-immunoprecipitated with DUX4-CTD (Table 1) and western validation
Type: binding, human
Set-up: key to 4. mL1dL2 + Dox + IFNG / 4. + IFNG mix / 4. longCTD + Dox + IFNG / 3. + IFNg + Dox longCTD / 3. + Dox longCTD / 3. + IFNG longCTD: peptide-spectrum matches (PSMs) per protein
Settings: kind of count not given; for 4. mL1dL2 + Dox + IFNG: LC-MS value per protein co-immunoprecipitated with DUX4-CTD construct mL1dL2 in MB135 myoblasts; for 4. + IFNG mix: LC-MS value per protein co-immunoprecipitated from MB135 myoblasts, + IFNG mix sample (no Dox)
In short: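 Two independent experiments compared uninduced, doxycycline and doxycycline+IFNG MB135iDUX4-CTD (plus MB135iDUX4mL1dL2) myoblasts. Anti-FLAG pulldowns (3 h, 4 °C) were eluted in LDS buffer for western validation or with FLAG peptide for trypsin digestion and Orbitrap LC-MS; hits needed ≥2 PSMs in both experiments, ranked by total PSMs.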

Molecule | 4. mL1dL2 + Dox + IFNG | 4. + IFNG mix
AP2B1 (protein) TDSKYFTTNKKGEIFELKAELNNEKKEKRKEAVKKVIAAMTVGKDVSSLFPDVVNCMQTDNLELKKLVYLYLMNYAKSQPDMAIMAVNSFVKDCEDPNPLIRALAVRTMGCIRVDKITEYLCEPLRKCLKDEDPYVRKTAAVCVAKLHDINAQMVEDQGFLDSLRDLIADSNPMVVANAVAALSEISESHPNSNLLDLNPQNINKLLTALNECTEWGQIFILDCLSNYNPKDDREAQSICERVTPRLSHANSAVVLSAVKVLMKFLELLPKDSDYYNMLLKKLAPPLVTLLSGEPEVQYVALRNINLIVQKRPEILKQEIKVFFVKYNDPIYVKLEKLDIMIRLASQANIAQVLAELKEYATEVDVDFVRKAVRAIGRCAIKVEQSAERCVSTLLDLIQTKVNYVVQEAIVVIRDIFRKYPNKYESIIATLCENLDSLDEPDARAAMIWIVGEYAERIDNADELLESFLEGFHDESTQVQLTLLTAIVKLFLKKPSETQELVQQVLSLATQDSDNPDLRDRGYIYWRLLSTDPVTAKEVVLSEKPLISEETDLIEPTLLDELICHIGSLASVYHKPPNAFVEGSHGIHRKHLPIHHGSTDAGDSPVGTTTATNLEQPQVIPSQGDLLGDLLNLDLGPPVNVPQVSSMQMGAVDLLGGGLDSLVGQSFIPSSVPATFAPSPTPAVVSSGLNDLFELSTGIGMAPGGYVAPKAVWLPAVKAKGLEISGTFTHRQGHIYMEMNFTNKALQHMTDFAIQFNKNSFGVIPSTPLAIHTPLMPNQSIDVSLPLNTLGPVMKMEPLNNLQVAVKNNIDVFYFSCLIPLNVLFVEDGKMERQVFLATWKDIPNENELQFQIKECHLNADTVSSKLQNNNVYTIAKRNVEGQDMLYQSLKLTNGIWILAELRIQPGNPNYTLSLKCRAPEVSQYIYQVYDSILKN | 1 | 
PHGDH (protein) AFANLRKVLISDSLDPCCRKILQDGGLQVVEKQNLSKEELIAELQDCEGLIVRSATKVTADVINAAEKLQVVGRAGTGVDNVDLEAATRKGILVMNTPNGNSLSAAELTCGMIMCLARQIPQATASMKDGKWERKKFMGTELNGKTLGILGLGRIGREVATRMQSFGMKTIGYDPIISPEVSASFGVQQLPLEEIWPLCDFITVHTPLLPSTTGLLNDNTFAQCKKGVRVVNCARGGIVDEGALLRALQSGQCAGAALDVFTEEPPRDRALVDHENVISCPHLGASTKEAQSRCGEEIAVQFVDMVKGKSLTGVVNAQALTSAFSPHTKPWIGLAEALGTLMRAWAGSPKGTIQVITQGTSLKNAGNCLSPAVIVGLLKEASKQADVNLVNAKLLVKEAGLNVTTSHSPAAPGEQGFGECLLAVALAGAPYQAVGLVQGTTPVLQGLNGAVFRPEVPLRRDLPLLLFRTQTSDPAMLPTMIGLLAEAGVRLLSYQTSLVSDGETWHVMGISSLLPSLEAWKQHVTEAFQFHF | 1 | 
PRSS2 (protein) IVGGYICEENSVPYQVSLNSGYHFCGGSLISEQWVVSAGHCYKSAINSKLSGRGCEYHRIQVRLGEHNIEVLEGNEQFINAAKIIRHPKYNSRTLDNDILLIKLSSPAVINSRVSAISLPTAPPAAGTESLISGWGNTLSSGADYPDELQCLDAPVLSQAECEASYPGKITNNMFCVGFLEGGKDSCQGDSGGPVVSNGELQGIVSWGYGCAQKNRPGVYTKVYNYVDWIKDTIAANS | 1 | 
HAT1 (protein) AGFGAMEKFLVEYKSAVEKKLAEYKCNTNTAIELKLVRFPEDLENDIRTFFPEYTHQLFGDDETAFGYKGLKILLYYIAGSLSTMFRVEYASKVDENFDCVEADDVEGKIRQIIPPGFCTNTNDFLSLLEKEVDFKPFGTLLHTYSVLSPTGGENFTFQIYKADMTCRGFREYHERLQTFLMWFIETASFIDVDDERWHYFLVFEKYNKDGATLFATVGYMTVYNYYVYPDKTRPRVSQMLILTPFQGQGHGAQLLETVHRYYTEFPTVLDITAEDPSKSYVKLRDFVLVKLCQDLPCFSREKLMQGFNEDMVIEAQQKFKINKQHARRVYEILRLLVTDMSDAEQYRSYRLDIKRRLISPYKKKQRDLAKMRKCLRPEELTNQMNQIEISMQHEQLEESFQELVEDYRRVIERLAQE | 10 | 1
RTN4 (protein) MEDLDQSPLVSSSDSPPRPQPAFKYQFVREPEDEEEEEEEEEEDEDEDLEELEVLERKPAAGLSAAPVPTAPAAGAPLMDFGNDFVPPAPRGPLPAAPPVAPERQPSWDPSPVSSTVPAPSPLSAAAVSPSKLPEDDEPPARPPPPPPASVSPQAEPVWTPPAPAPAAPPSTPAAPKRRGSSGSVDETLFALPAASEPVIRSSAENMDLKEQPGNTISAGQEDFPSVLLETAASLPSLSPLSAASFKEHEYLGNLSTVLPTEGTLQENVSEASKEVSEKAKTLLIDRDLTEFSELEYSEMGSSFSVSPKAESAVIVANPREEIIVKNKDEEEKLVSNNILHNQQELPTALTKLVKEDEVVSSEKAKDSFNEKRVAVEAPMREEYADFKPFERVWEVKDSKEDSDMLAAGGKIESNLESKVDKKCFADSLEQTNHEKDSESSNDDTSFPSTPEGIKDRSGAYITCAPFNPAATESIATNIFPLLGDPTSENKTDEKKIEEKKAQIVTEKNTSTKTSNPFLVAAQDSETDYVTTDNLTKVTEEVVANMPEGLTPDLVQEACESELNEVTGTKIAYETKMDLVQTSEVMQESLYPAAQLCPSFEESEATPSPVLPDIVMEAPLNSAVPSAGASVIQPSSSPLEASSVNYESIKHEPENPPPYEEAMSVSLKKVSGIKEEIKEPENINAALQETEAPYISIACDLIKETKLSAEPAPDFSDYSEMAKVEQPVPDHSELVEDSSPDSEPVDLFSDDSIPDVPQKQDETVMLVKESLTETSFESMIEYENKEKLSALPPEGGKPYLESFKLSLDNTKDTLLPDEVSTLSKKEKIPLQMEELSTAVYSNDDLFISKEAQIRETETFSDSSPIEIIDEFPTLISSKTDSFSKLAREYTDLEVSHKSEIANAPDGAGSLPCTELPHDLSLKNIQPKVEEKISFSDDFSKNGSATSKVLLLPPDVSALATQAEIESIVKPKVLVKEAEKKLPSDTEKEDRSPSAIFSAELSKTSVVDLLYWRDIKKTGVVFGASLFLLLSLTVFSIVSVTAYIALALLSVTISFRIYKGVIQAIQKSDEGHPFRAYLESEVAISEELVQKYSNSALGHVNCTIKELRRLFLVDDLVDSLKFAVLMWVFTYVGALFNGLTLLILALISLFSVPVIYERHQAQIDHYLGLANKNVKDAMAKIQAKIPGLKRKAE | 5 | 5
P4HA1 (protein) HPGFFTSIGQMTDLIHTEKDLVTSLKDYIKAEEDKLEQIKKWAEKLDRLTSTATKDPEGFVGHPVNAFKLMKRLNTEWSELENLVLKDMSDGFISNLTIQRQYFPNDEDQVGAAKALLRLQDTYNLDTDTISKGNLPGVKHKSFLTAEDCFELGKVAYTEADYYHTELWMEQALRQLDEGEISTIDKVSVLDYLSYAVYQQGDLDKALLLTKKLLELDPEHQRANGNLKYFEYIMAKEKDVNKSASDDQSDQKTTPKKKGVAVDYLPERQKYEMLCRGEGIKMTPRRQKKLFCRYHDGNRNPKFILAPAKQEDEWDKPRIIRFHDIISDAEIEIVKDLAKPRLRRATISNPITGDLETVHYRISKSAWLSGYENPVVSRINMRIQDLTGLDVSTAEELQVANYGVGGQYEPHFDFARKDEPDAFKELGTGNRIATWLFYMSDVSAGGATVFPEVGASVWPKKGTAVFWYNLFASGEGDYSTRHAACPVLVGNKWVSNKWLHERGQEFRRPCTLSELE | 27 | 1
S100A9 (protein) MTCKMSQLERNIETIINTFHQYSVKLGHPDTLNQGEFKELVRKDLQNFLKKENKNEKVIEHIMEDLDTNADKQLSFEEFIMLMARLTWASHEKMHEGDEGPGHHHKPGLGEGTP | 2 | 
AP2A1 (protein) MPAVSKGDGMRGLAVFISDIRNCKSKEAEIKRINKELANIRSKFKGDKALDGYSKKKYVCKLLFIFLLGHDIDFGHMEAVNLLSSNKYTEKQIGYLFISVLVNSNSELIRLINNAIKNDLASRNPTFMCLALHCIANVGSREMGEAFAADIPRILVAGDSMDSVKQSAALCLLRLYKASPDLVPMGEWTARVVHLLNDQHMGVVTAAVSLITCLCKKNPDDFKTCVSLAVSRLSRIVSSASTDLQDYTYYFVPAPWLSVKLLRLLQCYPPPEDAAVKGRLVECLETVLNKAQEPPKSKKVQHSNAKNAILFETISLIIHYDSEPNLLVRACNQLGQFLQHRETNLRYLALESMCTLASSEFSHEAVKTHIDTVINALKTERDVSVRQRAADLLYAMCDRSNAKQIVSEMLRYLETADYAIREEIVLKVAILAEKYAVDYSWYVDTILNLIRIAGDYVSEEVWYRVLQIVTNRDDVQGYAAKTVFEALQAPACHENMVKVGGYILGEFGNLIAGDPRSSPPVQFSLLHSKFHLCSVATRALLLSTYIKFINLFPETKATIQGVLRAGSQLRNADVELQQRAVEYLTLSSVASTDVLATVLEEMPPFPERESSILAKLKRKKGPGAGSALDDGRRDPSSNDINGGMEPTPSTVSTPSPSADLLGLRAAPPPAAPPASAGAGNLLVDVFDGPAAQPSLGPTPEEAFLSELEPPAPESPMALLADPAPAADPGPEDIGPPIPEADELLNKFVCKNNGVLFENQLLQIGVKSEFRQNLGRMYLFYGNKTSVQFQNFSPTVVHPGDLQTQLAVQTKRVAAQVDGGAQVQQVLNIECLRDFLTPPLLSVRFRYGGAPQALTLKLPVTINKFFQPTEMAAQDFFQRWKQLSLPQQEAQKIFKANHPMDAEVTKAKLLGFGSALLDNVDPNPENFVGAGIIQTKALQVGCLLRLEPNAQAQMYRLTLRTSKEPVSRHLCELLAQQF | 5 | 
